This is an account of results in patent publication US20210348152A1 (TECHNION RESEARCH AND DEVELOPMENT FOUNDATION, published 2021).

Sequences and labels used below:
T1: KPC1Δ967-1043 (FLAG-tagged) (Homo sapiens (Human), UniProt Q5XPI4 1-1314)
T1 construct: also called KPC1 species vii
T1 sequence: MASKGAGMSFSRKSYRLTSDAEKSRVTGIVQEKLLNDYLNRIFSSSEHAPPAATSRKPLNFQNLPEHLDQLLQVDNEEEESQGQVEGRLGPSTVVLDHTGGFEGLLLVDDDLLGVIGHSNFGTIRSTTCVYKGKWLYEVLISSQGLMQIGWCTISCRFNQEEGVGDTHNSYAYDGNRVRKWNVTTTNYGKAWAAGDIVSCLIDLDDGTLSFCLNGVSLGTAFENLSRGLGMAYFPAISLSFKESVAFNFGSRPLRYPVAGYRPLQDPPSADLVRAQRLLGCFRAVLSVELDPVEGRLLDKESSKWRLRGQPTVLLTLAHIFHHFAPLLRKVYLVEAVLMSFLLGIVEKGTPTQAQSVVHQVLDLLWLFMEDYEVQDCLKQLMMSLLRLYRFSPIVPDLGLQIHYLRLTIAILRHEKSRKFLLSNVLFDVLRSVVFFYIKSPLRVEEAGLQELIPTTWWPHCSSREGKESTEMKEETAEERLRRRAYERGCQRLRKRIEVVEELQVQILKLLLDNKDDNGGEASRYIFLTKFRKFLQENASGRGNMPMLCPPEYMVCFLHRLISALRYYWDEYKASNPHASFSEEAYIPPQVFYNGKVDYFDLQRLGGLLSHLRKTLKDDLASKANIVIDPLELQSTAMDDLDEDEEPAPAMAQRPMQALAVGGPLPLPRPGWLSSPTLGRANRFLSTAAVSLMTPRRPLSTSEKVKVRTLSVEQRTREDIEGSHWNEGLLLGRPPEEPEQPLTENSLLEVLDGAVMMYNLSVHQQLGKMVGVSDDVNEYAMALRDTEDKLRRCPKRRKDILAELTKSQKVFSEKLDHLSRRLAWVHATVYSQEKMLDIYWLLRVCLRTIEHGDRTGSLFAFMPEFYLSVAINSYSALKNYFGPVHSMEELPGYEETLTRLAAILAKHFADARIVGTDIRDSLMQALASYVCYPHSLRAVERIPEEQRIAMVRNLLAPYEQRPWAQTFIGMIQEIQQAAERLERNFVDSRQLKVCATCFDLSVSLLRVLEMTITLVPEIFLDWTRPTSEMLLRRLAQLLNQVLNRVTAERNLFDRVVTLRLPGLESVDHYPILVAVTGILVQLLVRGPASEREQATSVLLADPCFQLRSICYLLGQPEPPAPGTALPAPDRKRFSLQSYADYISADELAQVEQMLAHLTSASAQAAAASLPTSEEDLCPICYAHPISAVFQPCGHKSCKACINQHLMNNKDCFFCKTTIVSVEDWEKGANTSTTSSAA

B1: ILVRLW-KPC1 Δ 1-1253 (enzyme)
chain: ILVRLWCPICYAHPISAVFQPCGHKSCKACINQHLMNNKDCFFCKTTIVSVEDWEKGANTSTTSSAA
notes: also called KPC1 species xii
B2: WILVRL-KPC1 Δ 1-1253 (enzyme)
chain: WILVRLCPICYAHPISAVFQPCGHKSCKACINQHLMNNKDCFFCKTTIVSVEDWEKGANTSTTSSAA
notes: also called KPC1 species xvii
B3: KPC1 Δ 1-1253 (enzyme)
chain: CPICYAHPISAVFQPCGHKSCKACINQHLMNNKDCFFCKTTIVSVEDWEKGANTSTTSSAA
notes: also called KPC1 species xvi
B4: RLW-KPC1 Δ 1-1253 (enzyme)
chain: RLWCPICYAHPISAVFQPCGHKSCKACINQHLMNNKDCFFCKTTIVSVEDWEKGANTSTTSSAA
notes: also called KPC1 species xv
B5: WIL-KPC1 Δ 1-1253 (enzyme)
chain: WILCPICYAHPISAVFQPCGHKSCKACINQHLMNNKDCFFCKTTIVSVEDWEKGANTSTTSSAA
notes: also called KPC1 species xx
B6: KPC1Δ1-1017 (FLAG-tagged) (enzyme)
chain: LLQQGPDVAPSFLNSVLNQLNWAFSEFIGMIQEIQQAAERLERNFVDSRQLKVCATCFDLSVSLLRVLEMTITLVPEIFLDWTRPTSEMLLRRLAQLLNQVLNRVTAERNLFDRVVTLRLPGLESVDHYPILVAVTGILVQLLVRGPASEREQATSVLLADPCFQLRSICYLLGQPEPPAPGTALPAPDRKRFSLQSYADYISADELAQVEQMLAHLTSASAQAAAASLPTSEEDLCPICYAHPISAVFQPCGHKSCKACINQHLMNNKDCFFCKTTIVSVEDWEKGANTSTTSSAA
notes: Lacks amino acids 1-1017; also called KPC1 species x
B7: KPC1Δ1-973 (FLAG-tagged) (enzyme)
chain: WRGCGFGYRYTRLPHLLKTKLEDANLPSLQKPCPSTLLQQHMADLLQQGPDVAPSFLNSVLNQLNWAFSEFIGMIQEIQQAAERLERNFVDSRQLKVCATCFDLSVSLLRVLEMTITLVPEIFLDWTRPTSEMLLRRLAQLLNQVLNRVTAERNLFDRVVTLRLPGLESVDHYPILVAVTGILVQLLVRGPASEREQATSVLLADPCFQLRSICYLLGQPEPPAPGTALPAPDRKRFSLQSYADYISADELAQVEQMLAHLTSASAQAAAASLPTSEEDLCPICYAHPISAVFQPCGHKSCKACINQHLMNNKDCFFCKTTIVSVEDWEKGANTSTTSSAA
notes: also called KPC1 species ix
B8: LVRLW-KPC1 Δ 1-1253 (enzyme)
chain: LVRLWCPICYAHPISAVFQPCGHKSCKACINQHLMNNKDCFFCKTTIVSVEDWEKGANTSTTSSAA
notes: also called KPC1 species xiii
B9: WILVR-KPC1 Δ 1-1253 (enzyme)
chain: WILVRCPICYAHPISAVFQPCGHKSCKACINQHLMNNKDCFFCKTTIVSVEDWEKGANTSTTSSAA
notes: also called KPC1 species xviii
B10: VRLW-KPC1 Δ 1-1253 (enzyme)
chain: VRLWCPICYAHPISAVFQPCGHKSCKACINQHLMNNKDCFFCKTTIVSVEDWEKGANTSTTSSAA
notes: also called KPC1 species xiv
B11: WILV-KPC1 Δ 1-1253 (enzyme)
chain: WILVCPICYAHPISAVFQPCGHKSCKACINQHLMNNKDCFFCKTTIVSVEDWEKGANTSTTSSAA
notes: also called KPC1 species xix
B12: KPC1Δ1-1042 (FLAG-tagged) (enzyme)
chain: EFIGMIQEIQQAAERLERNFVDSRQLKVCATCFDLSVSLLRVLEMTITLVPEIFLDWTRPTSEMLLRRLAQLLNQVLNRVTAERNLFDRVVTLRLPGLESVDHYPILVAVTGILVQLLVRGPASEREQATSVLLADPCFQLRSICYLLGQPEPPAPGTALPAPDRKRFSLQSYADYISADELAQVEQMLAHLTSASAQAAAASLPTSEEDLCPICYAHPISAVFQPCGHKSCKACINQHLMNNKDCFFCKTTIVSVEDWEKGANTSTTSSAA
notes: also called KPC1 species v
B13: p105-HA (other, UniProt P19838 1-968, looked up)
chain: MAEDDPYLGRPEQMFHLDPSLTHTIFNPEVFQPQMALPTDGPYLQILEQPKQRGFRFRYVCEGPSHGGLPGASSEKNKKSYPQVKICNYVGPAKVIVQLVTNGKNIHLHAHSLVGKHCEDGICTVTAGPKDMVVGFANLGILHVTKKKVFETLEARMTEACIRGYNPGLLVHPDLAYLQAEGGGDRQLGDREKELIRQAALQQTKEMDLSVVRLMFTAFLPDSTGSFTRRLEPVVSDAIYDSKAPNASNLKIVRMDRTAGCVTGGEEIYLLCDKVQKDDIQIRFYEEEENGGVWEGFGDFSPTDVHRQFAIVFKTPKYKDINITKPASVFVQLRRKSDLETSEPKPFLYYPEIKDKEEVQRKRQKLMPNFSDSFGGGSGAGAGGGGMFGSGGGGGGTGSTGPGYSFPHYGFPTYGGITFHPGTTKSNAGMKHGTMDTESKKDPEGCDKSDDKNTVNLFGKVIETTEQDQEPSEATVGNGEVTLTYATGTKEESAGVQDNLFLEKAMQLAKRHANALFDYAVTGDVKMLLAVQRHLTAVQDENGDSVLHLAIIHLHSQLVRDLLEVTSGLISDDIINMRNDLYQTPLHLAVITKQEDVVEDLLRAGADLSLLDRLGNSVLHLAAKEGHDKVLSILLKHKKAALLLDHPNGDGLNAIHLAMMSNSLPCLLLLVAAGADVNAQEQKSGRTALHLAVEHDNISLAGCLLLEGDAHVDSTTYDGTTPLHIAAGRGSTRLAALLKAAGADPLVENFEPLYDLDDSWENAGEDEGVVPGTTPLDMATSWQVFDILNGKPYEPEFTSDDLLAQGDMKQLAEDVKLQLYKLLEIPDPDKNWATLAQKLGLGILNNAFRLSPAPSKTLMDNYEVSGGTVRELVEALRQMGYTEAIEVIQAASSPVKTTSQAHSLPLSPASTRQQIDELRDSDSVCDSGVETSFRKLSFTESLTSGASLLTLNKMPHDYGQEGPLEGKI
notes: Co-expressed with FLAG-tagged KPC1 species in HEK293T cells and detected with anti-NF-κB1 after anti-FLAG immunoprecipitation; also called NF-κB1 p105; NF-kB1 p105; not shown: HA tag

In one experiment the target is B13. Description: co-immunoprecipitation (anti-FLAG) from HEK293T cells, western blot. The protocol: (§1) HEK293T cells were transiently transfected with the various KPC1 species along with p105-HA using the j etPEI reagent. 48 hours after transfection, the cells were harvested and lysed with RIPA buffer [150 mM NaCl, 0.5% sodium deoxycholate, 50 mM Tris-HCl (pH 8.0), 0.1% SDS, and 1% NP-40, supplemented with freshly added protease inhibitors mixture]. KPC1 species proteins were immunoprecipitated with immobilized anti-FLAG, with subsequent washing of the beads five times with RIPA buffer. The immunoprecipitated proteins were resolved by SDS-PAGE (10%, FIGS. 1A, 1B, 2A and 2B, with a gel gradient, of 4-20%; FIGS. 3A and 3B), and blotted onto nitrocellulose (FIGS. 1A, 1B, 2A and 2B) or PVDF (FIGS. 3A and 3B) membranes. p105 and KPC1 species were visualized using anti-NF-kB1 or anti-FLAG antibodies, respectively.
(§2) Identification of the region of KPC1 that is responsible for the interaction with p105. In order to identify the region of KPC1 that is responsible for the interaction with p105, several truncated segments of the DNA sequence of the KPC1 protein were cloned. The truncated segments were inserted into the pCAGGS expression vector to analyze their interaction with p105 by co-immunoprecipitation (Co-IP) from cells. HEK 293T cells were transfected with cDNAs coding for p105-HA, along with different fragments of KPC1 (FIG. 1A). Species of KPC1 were immunoprecipitated using an immobilized anti-Flag antibody. The precipitated proteins were resolved via SDS-PAGE and detected by Western blot using anti NF-κB1 and anti-FLAG antibodies.
In general terms: In western blotting, separated proteins are transferred to a membrane and probed.
With B1, the binding result is listed as “no binding”. For the molecule B2, the binding result is “no binding”. Same read-out and setting: as for B3, the entry is “no binding”. As for B4, the binding result is “no binding”. On the same count and under the same terms, the entry for B5 is “no binding”; for B6 it is “no binding”; for B7 it is “no binding”.

For the molecule B8, the binding result is recorded as “no binding”.

For the molecule B9, the binding result is “no binding”. On the same count and under the same terms, as for B10, the entry is “no binding”; as for B11, “no binding”.

In the case of B12, the binding result was “no binding”.

Another experiment concerns the target T1, KPC1Δ967-1043 (FLAG-tagged). The experiment is described as above. As for the experimental part: as §1, §2
As for B13, the binding result is on record as “no binding”.
